Results published in the Human Domainome abundance scans (Beltran et al. 2025).
± gives the uncertainty stated by the source.

B1: POU domain, class 3, transcription factor 2, residues 356 to 411; numbered along this chain, P20265 (parent)
chain: KKRTSIEVSVKGALESHFLKCPKPSAQEITSLADSLQLEKEVVRVWFCNRRQKEKR

Variants of: B1
Test: abundance fitness (aPCA) (normalised: wild type 0, dead -1); higher = more abundant; growth selection in yeast, the domain comes from the species named
Settings: Homo sapiens

Variant | abundance fitness
KKRTSIEASVKGALESHFLKCPKPSAQEITSLADSLQLEKEVVRVWFCNRRQKEKR [V8A] | 0.202 ± 0.11
KKRTSIEVSVKGALESHFLKCPKPSAQEITSLADSLQLEKEVVHVWFCNRRQKEKR [R44H] | -0.127 ± 0.11
KKRTSIEVSVKGALESHFLKCPKPSAQEITSLADSLQLNKEVVRVWFCNRRQKEKR [E39N] | -0.217 ± 0.13
KKRTSIEVSVKGALESHFLKCPKPSAQEITSQADSLQLEKEVVRVWFCNRRQKEKR [L32Q] | -0.789 ± 0.2
KKRTSIEVSVKGALESHFLKCPKPSAQEITSNADSLQLEKEVVRVWFCNRRQKEKR [L32N] | -1.07 ± 0.3
RKRTSIEVSVKGALESHFLKCPKPSAQEITSLADSLQLEKEVVRVWFCNRRQKEKR [K1R] | -0.302 ± 0.17
KKRTSIEVSVKGALESHFLKCPKPSAQEITSLADSLQLEKEVVRVWFCNRAQKEKR [R51A] | -0.136 ± 0.076
KKRTSIEVSVKGALESHFLKCPKPSAQEITSLADSLQLEKEVVWVWFCNRRQKEKR [R44W] | -0.412 ± 0.14
KKRTSIEVSVKGALESHFLKCPKPSAQEITSLADSLQLEKEVVRVWFCNRFQKEKR [R51F] | -0.354 ± 0.17
KKRTSIEVSVKGALESHFLKCPKPSAQEITSLADSLQLEKEVVRVWFCNRRQKEKY [R56Y] | -0.413 ± 0.27
KKRTSIEVSFKGALESHFLKCPKPSAQEITSLADSLQLEKEVVRVWFCNRRQKEKR [V10F] | -0.568 ± 0.21
KKRTSIEVSVKGALESHFLKCPKPSAQEITSLADSLQLEKEVVRRWFCNRRQKEKR [V45R] | -0.293 ± 0.09
KKRTSIEVSVKGALESHFLKCPKPSAQEITSLANSLQLEKEVVRVWFCNRRQKEKR [D34N] | 0.148 ± 0.12
KKRTSIEVSVKGALESHFDKCPKPSAQEITSLADSLQLEKEVVRVWFCNRRQKEKR [L19D] | -0.142 ± 0.17
KKRHSIEVSVKGALESHFLKCPKPSAQEITSLADSLQLEKEVVRVWFCNRRQKEKR [T4H] | -0.363 ± 0.13
KKRTSIEVSVKGALESHFLKCPKPSAQEITSLADSLQLEKEVVRVWFCNRRQKHKR [E54H] | -0.417 ± 0.28
KKRTSIEVKVKGALESHFLKCPKPSAQEITSLADSLQLEKEVVRVWFCNRRQKEKR [S9K] | 0.109 ± 0.12
KKRTSIEVSVKSALESHFLKCPKPSAQEITSLADSLQLEKEVVRVWFCNRRQKEKR [G12S] | 0.097 ± 0.082
KKRTSIEVSVKGALESHFLKCPKPSAQEITSLADSLQLEKEVVRVWFCGRRQKEKR [N49G] | -0.25 ± 0.09
KKRTSIEVSVKGALMSHFLKCPKPSAQEITSLADSLQLEKEVVRVWFCNRRQKEKR [E15M] | -0.649 ± 0.15
KKRTSIEVSVKGALESHFLKCPKWSAQEITSLADSLQLEKEVVRVWFCNRRQKEKR [P24W] | -0.839 ± 0.16
KKRTSIEVSVKGALESHFLKCPKPSAQEITSLADSLSLEKEVVRVWFCNRRQKEKR [Q37S] | -0.032 ± 0.073
KKRGSIEVSVKGALESHFLKCPKPSAQEITSLADSLQLEKEVVRVWFCNRRQKEKR [T4G] | -0.198 ± 0.088
KKRTSIEVSVKGALESHFLKCPKPSAQEITSLADSLQLEKEVVRVWFPNRRQKEKR [C48P] | -0.948 ± 0.23

Variant | abundance fitness
KKLTSIEVSVKGALESHFLKCPKPSAQEITSLADSLQLEKEVVRVWFCNRRQKEKR [R3L] | 0.01 ± 0.087
KKRTSIEVSVKGALESHFLKCPKPSAQEITSLAQSLQLEKEVVRVWFCNRRQKEKR [D34Q] | 0.105 ± 0.11
KKRTSIEVSVKGALESHFLKAPKPSAQEITSLADSLQLEKEVVRVWFCNRRQKEKR [C21A] | -0.304 ± 0.11
KKRTSIEVSVKGALESHFLKCPKPSAQEITSLADSLQLEKEVVRVWFCNRRGKEKR [Q52G] | -0.076 ± 0.068
KKRTSIEVSVKGALESHFLKCPKPSAQEITSLADSLQLEKEVVRVWFHNRRQKEKR [C48H] | -0.118 ± 0.19
KKRTSIEVSVKGALESHFLKCPKPSAQEITSLADDLQLEKEVVRVWFCNRRQKEKR [S35D] | 0.091 ± 0.19
KKRTSIEVSVKGALESHFLKCPKPSSQEITSLADSLQLEKEVVRVWFCNRRQKEKR [A26S] | -0.134 ± 0.078
KKRTSIEVSVAGALESHFLKCPKPSAQEITSLADSLQLEKEVVRVWFCNRRQKEKR [K11A] | -0.094 ± 0.091
KKRTSIEVSVKGALESHFLKCPKPSAQEITSLADSLQLEKVVVRVWFCNRRQKEKR [E41V] | -0.596 ± 0.1
KKRTSIEVSVKGALESHFLKCPKPSAQEIASLADSLQLEKEVVRVWFCNRRQKEKR [T30A] | -0.041 ± 0.11
KKRTSIEVSVKGALESHFLKCPKPSAQEITSLADSLQLEKPVVRVWFCNRRQKEKR [E41P] | -0.697 ± 0.14
KKRTSIEVSVKGALESHFLKCPKPSAQCITSLADSLQLEKEVVRVWFCNRRQKEKR [E28C] | -0.299 ± 0.12
KKRTSIKVSVKGALESHFLKCPKPSAQEITSLADSLQLEKEVVRVWFCNRRQKEKR [E7K] | -0.112 ± 0.092
KKRTSIEVSVKGALESHFLKCPKPSAQEITSLADSLQLEKEVVRVWFCTRRQKEKR [N49T] | -0.207 ± 0.097
KKRTSIEVSVKGALESHFLKCPKPSAQEITSIADSLQLEKEVVRVWFCNRRQKEKR [L32I] | -0.161 ± 0.16
KKRTSIEVSVKGALESHFLKCPKPSAQEITSLADQLQLEKEVVRVWFCNRRQKEKR [S35Q] | 0.008 ± 0.13
KKRTSIEVSVKGALESMFLKCPKPSAQEITSLADSLQLEKEVVRVWFCNRRQKEKR [H17M] | -0.047 ± 0.11
KKRTSIEVSVKGALESHFLKCPKPSAQEITSLADSLQLEKEVVRVPFCNRRQKEKR [W46P] | -0.986 ± 0.15
KKRRSIEVSVKGALESHFLKCPKPSAQEITSLADSLQLEKEVVRVWFCNRRQKEKR [T4R] | -0.356 ± 0.074
KKRTSIEVSVKGALESHFLKCPKPSAQEITSLADSLQLEKEVVRVWFCNRRQKEMR [K55M] | -0.056 ± 0.14
KKRTSIEVSVKGALESHFLKCPKPSAQEITSLADSLQLEKEVVRHWFCNRRQKEKR [V45H] | 0.089 ± 0.12
KKRTWIEVSVKGALESHFLKCPKPSAQEITSLADSLQLEKEVVRVWFCNRRQKEKR [S5W] | -0.313 ± 0.11
KKITSIEVSVKGALESHFLKCPKPSAQEITSLADSLQLEKEVVRVWFCNRRQKEKR [R3I] | 0.045 ± 0.15
